Data on 3 molecules can be found in patent US20140286972A1.

Experiment [1] has as its target IgE antibodies of a mixture of sera of patients allergic to P. judaica (human). As to the kind of experiment: ELISA inhibition, extract on solid phase, pooled sera preincubated with inhibitor.
Experiment [2] shares this target. In words: ELISA inhibition, extract on solid phase, pooled sera; reference nPar j 1-Par j 2.
Experiment [3] shares this target. In words: ELISA inhibition, extract on solid phase, pooled sera.
Experiment [4] has the same target. In words: ELISA inhibition, extract on solid phase, pooled sera; reference Q1.

B1: chimeric protein Q2 (protein)
chain: MRGSHHHHHHGILQETCGTMVRALMPCLPFVQGKEKEPSKGLQIQTAMKTYSDIDGKLVSEVPKHCGIVDSKLPPIDVNMDCKTLGVVPRQPQLPVSLRHGPVTGPSDPAHKARLERPQIRVPPPAPEKAEFEEACGKVVQDIMPCLHFVKGEEKEPSKEDIIVRATKGISGIKNELVAEVPKKCDIKTTLPPITADFDCSKIQSTIFRGYY
In the case of B1, the maximum degree of inhibition of IgE binding to P. judaica extract in experiment [1] was determined as 60%. In addition, in experiment [2], the fold higher protein concentration than nPar j 1-Par j 2 for the same degree of inhibition was 10000 times. Besides, the reduction of allergenicity (IgE-binding) against nPar j 1-Par j 2 in experiment [3] turned out to be 100%. Further, in experiment [4], the fold less allergenic than the chimeric protein Q1 was found to be 20 times.

B2: chimeric protein Q3 (protein)
chain: MRGSHHHHHHGILPETCGTMVRALMPCLPFVQGKEKEPSKGLQIQTAMKTYSDIDGKLVSEVRSSKLPPIDVNMDCKTLGVVPRQPQLPVSLRHGPVTGPSDPAHKARLERPQIRVPPPAPEKAEFEEACGKVVQDIMPCLHFVKGEEKEPSKEDIIVRATKGISGIKNELVAEVPGTLPPITADFDCSKIQSTIFRGYY
Consider B2, for which the maximum degree of inhibition of IgE binding to P. judaica extract in experiment [1] stood at 60%. Besides, the fold higher protein concentration than nPar j 1-Par j 2 for the same degree of inhibition in experiment [2] stood at 10000 times. For the same molecule, the reduction of allergenicity (IgE-binding) against nPar j 1-Par j 2 in experiment [3] was 100%.

B3: chimeric protein Q1 (protein)
chain: MRGSHHHHHHGILQETCGTMVRALMPCLPFVQGKEKEPSKGCCSGAKRLDGETKTGPQRVHACECIQTAMKTYSDIDGKLVSEVPKHCGIVDSKLPPIDVNMDCKTLGVVPRQPQLPVSLRHGPVTGPSDPAHKARLERPQIRVPPPAPEKAEFEEACGKVVQDIMPCLHFVKGEEKEPSKECCSGTKKLSEEVKTTEQKREACKCIVRATKGISGIKNELVAEVPKKCDIKTTLPPITADFDCSKIQSTIFRGYY
B3: the degree of inhibition of IgE binding to P. judaica extract in experiment [1] amounted to 50%. Also, the fold more protein needed than nPar j 1-Par j 2 in experiment [2] was 500 times.
